Assays:
[1] = molecular target: extracellular domain of CLEC12A (amino acids 75 to 275) coupled to a His-tag (Sino Biological, cat.no. 11896-H07H) (UniProt Q5QGZ9); test: ELISA, extracellular domain of CLEC12A coated at 2 µg/ml
[2] = molecular target: CLEC12A expressed on cells (CLEC12A-transfected CHO cells; HL60 cells) (UniProt Q5QGZ9); test: flow cytometry on HL60 cells
[3] = molecular target: CLEC12A expressed on cells (CLEC12A-transfected CHO cells; HL60 cells) (UniProt Q5QGZ9); test: flow cytometry on CLEC12A-transfected CHO cells

Sequence of CLEC12A expressed on cells (CLEC12A-transfected CHO cells; HL60 cells) (Q5QGZ9 whole entry): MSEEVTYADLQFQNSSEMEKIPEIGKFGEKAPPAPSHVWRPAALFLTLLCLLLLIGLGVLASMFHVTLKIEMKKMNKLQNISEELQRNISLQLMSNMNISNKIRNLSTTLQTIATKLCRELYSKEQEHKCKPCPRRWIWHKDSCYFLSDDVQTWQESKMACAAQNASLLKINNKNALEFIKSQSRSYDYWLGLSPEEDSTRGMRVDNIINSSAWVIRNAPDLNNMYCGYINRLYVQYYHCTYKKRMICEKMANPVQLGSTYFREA
Sequence of extracellular domain of CLEC12A (amino acids 75 to 275) coupled to a His-tag (Sino Biological, cat.no. 11896-H07H) (Q5QGZ9 65-265 limits assumed): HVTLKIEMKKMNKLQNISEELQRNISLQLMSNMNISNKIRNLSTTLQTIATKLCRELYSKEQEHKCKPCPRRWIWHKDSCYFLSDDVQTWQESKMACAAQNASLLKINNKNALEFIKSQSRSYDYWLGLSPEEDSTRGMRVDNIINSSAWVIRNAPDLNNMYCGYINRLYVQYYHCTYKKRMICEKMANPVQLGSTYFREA

Substance: irrelevant IgG1 isotype control mAb (antibody)
- optical density [1]: 0.127
- mean fluorescent intensity [2]: 116
- mean fluorescent intensity [3]: 289

— US20250026823A1
